Test [1] addresses human uPAR expressed on the cell surface (human) (UniProt Q03405). Put plainly: flow cytometry on 293T cells, isotype control (background). For orientation: Flow cytometry measures light scatter and fluorescence of single cells or particles in a stream.
Test [2] shares this target. Put plainly: flow cytometry on 293T-uPAR cells, isotype control (background).
Test [3] shares this target. In words: flow cytometry on A375 cells, isotype control (background).

The text below walks through data of patent US20240417485A1.

human uPAR expressed on the cell surface (human), sequence (Q03405 23-305): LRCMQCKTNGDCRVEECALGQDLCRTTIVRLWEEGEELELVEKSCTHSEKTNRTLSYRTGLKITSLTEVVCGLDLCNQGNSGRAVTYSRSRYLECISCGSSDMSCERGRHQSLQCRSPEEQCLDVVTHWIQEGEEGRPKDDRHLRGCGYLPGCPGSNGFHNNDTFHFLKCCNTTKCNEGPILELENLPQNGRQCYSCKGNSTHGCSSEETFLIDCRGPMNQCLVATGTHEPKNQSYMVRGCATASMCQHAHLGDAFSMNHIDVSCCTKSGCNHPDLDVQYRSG

Turning to isotype antibody, the values for the MFI in test [1], in test [2] and in test [3] were 62, 46.4 and 71.3, respectively.
